Patent US20230050846A1, “TREATMENT OF HEPATIC AND CARDIOVASCULAR DISORDERS” (LIFESEARCH, priority 2019, published 2023)

Target: T1, human F1Fo-ATPase (Homo sapiens, UniProt P06576)
T1 construct: Human F1Fo-ATPase was purified from HepG2 cells by immunocapture; endogenous in cells; host or cells: HepG2 cells; complex isolated by immunocapture with anti-ATP synthase antibody 12F4AD8AF8 (#ab109867, Abcam)
Assay: F1-ATPase activity assay (NADH-coupled, purified enzyme)
Format: biochemical
Settings: 1 μM
Text: The mature human IF1 protein (SEQ ID NO: 5) was chemically synthesized by GenScript (Piscataway, N.J., USA) at >80% purity. The peptides derived from the mature human IF1 sequence (IF1-1-60, IF1-10-56, IF1-10-47) were produced by BachemAG (Bubendorf, Switzerland) with >90% purity.
Human F1Fo-ATPase was purified from HepG2 cells by immunocapture using mouse monoclonal anti-ATP synthase antibody (12F4AD8AF8, #ab109867, Abcam) according to manufacturer's instructions.
Measurement of F1-ATPase activity was assayed as previously described. Briefly, 10 μg of F1Fo-ATPase was prepared into 50 μL of activity assay buffer (10 mM HEPES, 150 mM NaCl, 5 mM KCl, 5 mM MgCl2, 0.5 mM phosphoenolpyruvate, 250 μM NADH, 100 μM ATP, 20 U lactate dehydrogenase, 120 U pyruvate kinase). The mixture was incubated at 37° C. for 30 min. Then the F1-ATPase activity was measured in a 96-well microplate by adding 5 μL of the mixture (1 μg of F1Fo-ATPase per point) per well to 200 μL of activity assay buffer at 37° C., and by adding 5 μL of buffer with or without peptide (1 μM each). The reduction in the absorbance of NADH was measured at 340 nm for 5 min with a Varioskan™ Flash Multimode Reader (Thermo Fisher Scientific). A slope was calculated for each well and the results expressed as a percentage of the control slope.

B1: IF1: mature human IF1 protein (SEQ ID NO: 5), chemically synthesized, natural inhibitor of F1-ATPase (protein, listed as Homo sapiens)
chain: GSDQSENVDRGAGSIREAGGAFGKREQAEEERYFRAQSREQLAALKKHHEEEIVHHKKEIERLQKEIERHKQKIKMLKHDD
- inhibition of F1-ATPase activity as compared to control: 96%
